± gives the standard deviation of the averaged measurements.
The sequences below were run on Saccharomyces cerevisiae (assay: protein stability index of tFT-peptide fusion (C-terminal peptide) (PSI (0-1 scale)); higher = more stable (slower turnover)). Conditions: genetic background: das1 deletion; temperature: 37 C.
Procedure: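 MPS profiling in S. cerevisiae of the tFT-X12 degron library: putative degron peptides plus stable controls, 12 aa, fused to the C-terminus of a sfGFP-mCherry timer. Cells are FACS-sorted into 8 mCherry/sfGFP bins and deep-sequenced. PSI runs from 0 (unstable) to 1 (stable). Backgrounds are wild type, das1Δ and doa10Δ at 30 °C, and wild type, das1Δ, cdc34-1 and cdc53-1 at 37 °C; 2-3 technical replicates each.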
PAPQAVRIFSLY was tested, and the protein stability index was 0.744 ± 0.026. Sequence PASYPPFIYLSI has a protein stability index of 0.496 ± 0.01. For PCFACIAFVLFP, the protein stability index was 0.509 ± 0.032. PLFLRPLSVPVL showed a protein stability index of 0.457 ± 0.0058. In the case of PLLPCRPILFLL, the protein stability index is reported as 0.6615 ± 0.0026. Sequence PLLPLPRFPLFA has a protein stability index of 0.595 ± 0.021. In the case of PLSDPLRVILIM, the protein stability index is reported as 0.627 ± 0.014. For PPPPTPRPLLPP, the protein stability index was 0.73 ± 0.021. For PPPRLPLLSCSQ, the protein stability index was 0.6752 ± 0.00072. With PPPSRRLTLRLA the protein stability index was 0.698 ± 0.009. PPWRPVALLLLA gave a protein stability index of 0.384 ± 0.007. With PRFCVYARFHNT the protein stability index was 0.722 ± 0.054. PRFWFYLSYSVH showed a protein stability index of 0.533 ± 0.015. PSPPPPLPPHPS was tested, and the protein stability index was 0.72 ± 0.01. With PSPPPPRPASPS the protein stability index was 0.72829 ± 0.00037. For PSTLVITVVITK, the protein stability index was 0.4255 ± 0.0021. PYHAPRPPFSLF was tested, and the protein stability index was 0.7543 ± 0.0025. QARQLEMYMVVF gave a protein stability index of 0.579 ± 0.02. Work on QCKHIVRKIKLH yielded a protein stability index of 0.737 ± 0.018. Sequence QDFFYCLLVATS has a protein stability index of 0.3605 ± 0.003. For QGILVGCCYVLC, the protein stability index was 0.5035 ± 0.00077. QLGGKVGNCHVV showed a protein stability index of 0.732 ± 0.025. Work on QVGRPRVGFSRR yielded a protein stability index of 0.75 ± 0.016. With RAFFLLYCTLWA the protein stability index was 0.266 ± 0.012. For RALYLLALVGVS, the protein stability index was 0.371 ± 0.0042. Work on RARFMLGVLLST yielded a protein stability index of 0.5834 ± 0.0054. With RARLRFASLRAF the protein stability index was 0.644 ± 0.029. With RDRHFKIQTCIM the protein stability index was 0.717 ± 0.014. In the case of RFCLLFVVAGGV, the protein stability index is reported as 0.546 ± 0.0069. Sequence RFFFFFPCLLAP has a protein stability index of 0.525 ± 0.026. RFYLFLFFVRST gave a protein stability index of 0.5488 ± 0.0049. RGGVCFVVWCGG showed a protein stability index of 0.475 ± 0.029. RGRLKSSYFILF showed a protein stability index of 0.7509 ± 0.0052. With RGWNGFWVVVVW the protein stability index was 0.4155 ± 0.0011. Work on RIKVTRRIIIYA yielded a protein stability index of 0.446 ± 0.014. With RILSLQFILCKR the protein stability index was 0.64 ± 0.0078. Work on RLARRGGGWGPG yielded a protein stability index of 0.706 ± 0.022. Work on RLELTRIMIVAI yielded a protein stability index of 0.214 ± 0.0094. In the case of RLGIRCLYLRFI, the protein stability index is reported as 0.5974 ± 0.0019. RLLCLARMRGLH showed a protein stability index of 0.728 ± 0.037. For RLMVHQHTIPVR, the protein stability index was 0.559 ± 0.021. RLVIFITRYLIS was tested, and the protein stability index was 0.562 ± 0.015. For RLVYSQKRWSLF, the protein stability index was 0.76378 ± 0.0006. For RPGRWFCFLYCV, the protein stability index was 0.532 ± 0.011. With RPIFAYRPLRFL the protein stability index was 0.763 ± 0.023. Sequence RPNTFRTRAKAL has a protein stability index of 0.734 ± 0.017. For RRFKKTEIIKNN, the protein stability index was 0.7804 ± 0.0062. With RRVPVHIHFSLF the protein stability index was 0.732 ± 0.039. RSKKIFLTKKYS was tested, and the protein stability index was 0.701 ± 0.018. With RSPIRYPPVVLS the protein stability index was 0.7493 ± 0.0034. For RSPVVVFAVLLF, the protein stability index was 0.524 ± 0.016. With RSRCVRAAVKVG the protein stability index was 0.70656 ± 0.00048. RSRRNRYSRKIA gave a protein stability index of 0.6959 ± 0.0048. Work on RSWLCFIVFGLF yielded a protein stability index of 0.485 ± 0.015. Sequence RTSRPVRLFRIH has a protein stability index of 0.78 ± 0.009. Sequence RVCWLRAFGFLV has a protein stability index of 0.724 ± 0.024. RVGALLAVTCPA was tested, and the protein stability index was 0.5127 ± 0.0033. In the case of RVLILCLFFRWS, the protein stability index is reported as 0.435 ± 0.0084. For RVVILFVFLVYV, the protein stability index was 0.376 ± 0.0065. RWCLWGTRVWVS showed a protein stability index of 0.591 ± 0.029. RWELASKCRLCV was tested, and the protein stability index was 0.7123 ± 0.0068. Work on RWRDGVAWVVVC yielded a protein stability index of 0.452 ± 0.0084. Work on SAWGQAFWCQMG yielded a protein stability index of 0.764 ± 0.016. Sequence SCCGCGFGLLFC has a protein stability index of 0.7812 ± 0.0002. Sequence SCCIYVALCRWL has a protein stability index of 0.5601 ± 0.0013. Work on SCGVYVVFVLVE yielded a protein stability index of 0.294 ± 0.006. SCIVRTLVPCPS showed a protein stability index of 0.4761 ± 0.0022. SFCVLLQFCVLV was tested, and the protein stability index was 0.461 ± 0.011. Work on SFFCTRVLWVFQ yielded a protein stability index of 0.6285 ± 0.0029. SFHTFFCPFFIL was tested, and the protein stability index was 0.713 ± 0.032. SGPNASRFYAPI showed a protein stability index of 0.72486 ± 8.5e-06. SHPFIRSLVFLA gave a protein stability index of 0.721 ± 0.02. For SHWSMQATLQLV, the protein stability index was 0.6866 ± 0.0046. SIFFLVPLVFLS showed a protein stability index of 0.584 ± 0.015. Sequence SIPVWTIELFAT has a protein stability index of 0.6153 ± 0.0042. Sequence SLEACYCFVVLV has a protein stability index of 0.291 ± 0.0068. For SLFDQDCGGTVW, the protein stability index was 0.784 ± 0.014. For SLIFRVGKFKSL, the protein stability index was 0.738 ± 0.012.

Same assay, conditions: genetic background: doa10 deletion; temperature: 30 C
For PAPQAVRIFSLY, the protein stability index was 0.179 ± 0.01. PASYPPFIYLSI was tested, and the protein stability index was 0.654 ± 0.018. For PCFACIAFVLFP, the protein stability index was 0.334 ± 0.013. PLFLRPLSVPVL showed a protein stability index of 0.305 ± 0.0096. For PLLPCRPILFLL, the protein stability index was 0.125 ± 0.0042. Sequence PLLPLPRFPLFA has a protein stability index of 0.332 ± 0.009. Sequence PLSDPLRVILIM has a protein stability index of 0.188 ± 0.0023. In the case of PPPPTPRPLLPP, the protein stability index is reported as 0.666 ± 0.039. In the case of PPPRLPLLSCSQ, the protein stability index is reported as 0.632 ± 0.024. In the case of PPPSRRLTLRLA, the protein stability index is reported as 0.179 ± 0.017. PPWRPVALLLLA was tested, and the protein stability index was 0.0824 ± 0.02. PRFCVYARFHNT showed a protein stability index of 0.298 ± 0.023. Sequence PRFWFYLSYSVH has a protein stability index of 0.3014 ± 0.0016. PSPPPPLPPHPS showed a protein stability index of 0.685 ± 0.019. PSPPPPRPASPS gave a protein stability index of 0.667 ± 0.048. Sequence PSTLVITVVITK has a protein stability index of 0.23 ± 0.023. PYHAPRPPFSLF showed a protein stability index of 0.0708 ± 0.013. Work on QARQLEMYMVVF yielded a protein stability index of 0.379 ± 0.015. In the case of QCKHIVRKIKLH, the protein stability index is reported as 0.117 ± 0.016. QDFFYCLLVATS was tested, and the protein stability index was 0.174 ± 0.0022. In the case of QGILVGCCYVLC, the protein stability index is reported as 0.2731 ± 0.0018. QLGGKVGNCHVV was tested, and the protein stability index was 0.668 ± 0.05. For QVGRPRVGFSRR, the protein stability index was 0.657 ± 0.016. RAFFLLYCTLWA showed a protein stability index of 0.132 ± 0.016. With RALYLLALVGVS the protein stability index was 0.169 ± 0.0096. RARFMLGVLLST showed a protein stability index of 0.314 ± 0.0056. RARLRFASLRAF gave a protein stability index of 0.144 ± 0.012. Sequence RDRHFKIQTCIM has a protein stability index of 0.24 ± 0.017. For RFCLLFVVAGGV, the protein stability index was 0.35 ± 0.035. RFFFFFPCLLAP gave a protein stability index of 0.519 ± 0.025. Work on RFYLFLFFVRST yielded a protein stability index of 0.113 ± 0.0039. RGGVCFVVWCGG gave a protein stability index of 0.4305 ± 0.00076. Work on RGRLKSSYFILF yielded a protein stability index of 0.49 ± 0.0063. RGWNGFWVVVVW showed a protein stability index of 0.213 ± 0.0046. For RIKVTRRIIIYA, the protein stability index was 0.14 ± 0.0072. Sequence RILSLQFILCKR has a protein stability index of 0.407 ± 0.013. RLARRGGGWGPG showed a protein stability index of 0.657 ± 0.034. RLELTRIMIVAI gave a protein stability index of 0.109 ± 0.015. RLGIRCLYLRFI was tested, and the protein stability index was 0.25 ± 0.015. For RLLCLARMRGLH, the protein stability index was 0.341 ± 0.036. In the case of RLMVHQHTIPVR, the protein stability index is reported as 0.276 ± 0.035. For RLVIFITRYLIS, the protein stability index was 0.116 ± 0.03. Sequence RLVYSQKRWSLF has a protein stability index of 0.167 ± 0.037. With RPGRWFCFLYCV the protein stability index was 0.163 ± 0.01. RPIFAYRPLRFL gave a protein stability index of 0.212 ± 0.0076. In the case of RPNTFRTRAKAL, the protein stability index is reported as 0.145 ± 0.003. Work on RRFKKTEIIKNN yielded a protein stability index of 0.1324 ± 0.00038. RRVPVHIHFSLF gave a protein stability index of 0.156 ± 0.0052. RSKKIFLTKKYS was tested, and the protein stability index was 0.162 ± 0.0021. For RSPIRYPPVVLS, the protein stability index was 0.539 ± 0.021. RSPVVVFAVLLF showed a protein stability index of 0.35 ± 0.037. Sequence RSRCVRAAVKVG has a protein stability index of 0.177 ± 0.0018. Work on RSRRNRYSRKIA yielded a protein stability index of 0.0765 ± 0.034. Work on RSWLCFIVFGLF yielded a protein stability index of 0.238 ± 0.0067. RTSRPVRLFRIH gave a protein stability index of 0.26 ± 0.051. RVCWLRAFGFLV showed a protein stability index of 0.258 ± 0.015. Sequence RVGALLAVTCPA has a protein stability index of 0.262 ± 0.0067. RVLILCLFFRWS gave a protein stability index of 0.257 ± 0.0049. In the case of RVVILFVFLVYV, the protein stability index is reported as 0.2526 ± 0.0011. In the case of RWCLWGTRVWVS, the protein stability index is reported as 0.103 ± 0.0031. With RWELASKCRLCV the protein stability index was 0.148 ± 0.011. RWRDGVAWVVVC gave a protein stability index of 0.0897 ± 0.019. For SAWGQAFWCQMG, the protein stability index was 0.233 ± 0.016. For SCCGCGFGLLFC, the protein stability index was 0.643 ± 0.032. SCCIYVALCRWL gave a protein stability index of 0.323 ± 0.0071. SCGVYVVFVLVE gave a protein stability index of 0.128 ± 0.026. For SCIVRTLVPCPS, the protein stability index was 0.224 ± 0.016. SFCVLLQFCVLV was tested, and the protein stability index was 0.336 ± 0.0041. SFFCTRVLWVFQ was tested, and the protein stability index was 0.0925 ± 0.004. For SFHTFFCPFFIL, the protein stability index was 0.189 ± 0.0043. Work on SGPNASRFYAPI yielded a protein stability index of 0.657 ± 0.034. With SHPFIRSLVFLA the protein stability index was 0.0816 ± 0.008. For SHWSMQATLQLV, the protein stability index was 0.443 ± 0.034. For SIFFLVPLVFLS, the protein stability index was 0.134 ± 0.0055. SIPVWTIELFAT was tested, and the protein stability index was 0.335 ± 0.022. For SLEACYCFVVLV, the protein stability index was 0.175 ± 0.019. SLFDQDCGGTVW gave a protein stability index of 0.655 ± 0.014. SLIFRVGKFKSL showed a protein stability index of 0.0628 ± 0.011.
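Also: PSI is a weighted mean of sequencing reads over stability bins, variants kept only with over 10 reads, mCherry proximal and sfGFP distal, peptide attached via GGGS linker.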
